Measured values: paper PMC6493668 (2019)
Numbering of substitutions follows the chain as printed.

B1: F4 Fab (fragment of antigen binding of the neutralizing monoclonal antibody F4) (Fab, V domains shown)
VH: EVKLVESGGGLVKPGGSLKLSCAASLFTHNNYGMSWVRQTPEKRLEWVATINSTASYTYYPDSVKGRFTISRDNAKNTLYLQMSSLRSGDTAIYYCARKNDTFSDYYFDYWGQGTTLTVSS
VL: DIVLTQSPAIMSASPGERVTMTCSAHVSTDYMHWYQQKSGTSPKRWIYDTSKLASTVPDRFSGSGSGTSYSLTISSMEAEDAATYYCQQWNNNAYTYGGGTKLEIK
B2: F6 Fab (fragment of antigen binding of the neutralizing monoclonal antibody F6) (Fab, V domains shown)
VH: EVKLVESGGGLVKPGGSLKLSCAASMYNFQHYGMSWVRQTPEKRLEWVATIQTNATYTYYPDSVKGRFTISRDNARNILYLQMSSLRSGDTAMYYCARRDNIECHYYFDYWGQGTTLTVSS
VL: DIVLTQSPAIMSASPGERVTMTCSAHQYVSYMHWYQQKSGTSPKRWIYDTSRLADAIPQRFSGRGSGTSYSLTISSMEAEDAATYYCQQWQSNPYTFGGGTKLEIK
B3: R10 Fab (fragment of antigen binding of the neutralizing monoclonal antibody R10) (Fab, V domains shown)
VH: EVKLVESGGGSVKPGGSLKLSCAASGFSFSTYGMSWVRQTPEKRLEWVATISGGGGYTYYPDSVKGRFTISRDNARNILYLQMSSLRSGDTAMYYCARRVTTVAEYYFDYWGQGTTLTVSS
VL: DIVLTQSPAIMSASPGEKVTMTCSASSSVSYIHWYQQKSGTSPKRWIYDTSRLAFGVPGRFSGSGSGTSYSLTISSMEAEDAATYYCQQWSSNYTFGGGTNLEIK
B4: F9 Fab (fragment of antigen binding of the neutralizing monoclonal antibody F9) (Fab, V domains shown)
VH: EVKLVESGGGLVKPGGSLKLSCAASAFTITTYGMSWVRQTPEKRLEWVATITAGGSYTYYPDSVKGRFTISRDNAKNTLYLQMSSLRSGDTAMYYCARKVTSVAEYYFDYWGQGTTLTVSS
VL: DIVLTQSPAIMSASPGEKVTMTCSATSGLSYIHWYQQKSGTSPKRWIYDTSKLAFGAPARFSGSGSGTSYSLTISSMEAEDAATYYCQQWDVNPYTFGGGTKLEIK
B5: F7 Fab (fragment of antigen binding of the neutralizing monoclonal antibody F7) (Fab, V domains shown)
VH: EVKLVESGGGLVKPGGSLKLSCAASIHTFNCYGMSWVRQTPEKGLEWVATIDAASSYTYYPDSVKGRFTISRDNAKNTLYLQMSSLRSGDTAMYYCARRDNTTAQYYFDYWGQGTTLTVSS
VL: B4 VL with T26A, G28S, L29V, K52R, A57V, A59T, D91S, V92T

Molecular target: T1, hepatitis A virus (HAV) full particle, genotype TZ84 (HAV IA genotype) (hepatitis A virus, genotype TZ84 (HAV …))
T1 chain 1: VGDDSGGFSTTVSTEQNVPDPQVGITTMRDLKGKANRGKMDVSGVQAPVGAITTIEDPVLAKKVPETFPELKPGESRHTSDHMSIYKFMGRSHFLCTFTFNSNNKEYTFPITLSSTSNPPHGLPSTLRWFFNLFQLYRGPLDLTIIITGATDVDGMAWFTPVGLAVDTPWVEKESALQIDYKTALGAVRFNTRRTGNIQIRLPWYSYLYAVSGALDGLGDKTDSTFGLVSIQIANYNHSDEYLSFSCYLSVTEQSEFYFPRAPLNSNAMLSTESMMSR
T1 chain 2: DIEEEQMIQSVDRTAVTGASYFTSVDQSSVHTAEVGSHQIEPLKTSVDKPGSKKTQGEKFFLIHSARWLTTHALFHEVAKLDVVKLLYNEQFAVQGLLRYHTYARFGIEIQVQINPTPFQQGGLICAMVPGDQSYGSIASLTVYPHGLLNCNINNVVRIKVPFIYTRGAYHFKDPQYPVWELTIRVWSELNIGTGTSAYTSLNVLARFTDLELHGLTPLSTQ
T1 chain 3: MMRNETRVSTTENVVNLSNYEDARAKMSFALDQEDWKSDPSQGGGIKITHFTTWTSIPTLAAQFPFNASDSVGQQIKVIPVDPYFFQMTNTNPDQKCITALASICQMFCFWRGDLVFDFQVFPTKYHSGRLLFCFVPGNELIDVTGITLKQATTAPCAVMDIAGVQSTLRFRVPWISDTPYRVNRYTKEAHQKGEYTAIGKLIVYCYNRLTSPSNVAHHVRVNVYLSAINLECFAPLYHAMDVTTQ
Experiment: SPR
B1 gave a koff of 0.000252 s⁻¹. B2 showed a koff of 0.000134 s⁻¹. B3 gave a koff of 0.000528 s⁻¹. With B4 the koff was 0.000537 s⁻¹. For B5, the koff was 0.000743 s⁻¹.

Molecular target: T1, hepatitis A virus (HAV) full particle, …
Experiment: SPR
Remark: another data set of the same source
With B1 the Kd was 5.14 nM. B2 showed a Kd of 2.19 nM. B3 gave a Kd of 8.13 nM. B4 showed a Kd of 7.18 nM. Work on B5 yielded a Kd of 7.1 nM.
